B1: CPEB3 Ribozyme (parent)
chain: UAACAGGGGGCCACAGCAGAAGCGUUCACGUCGCAGCCCCUGUCAGAUUCUGGUGAAUCUGCGAAUUCUGCUGUAUAUCUC

Variants of: B1
Assay: self-cleavage, relative activity (ratio to wild type); higher = more cleavage; in vitro, sequencing
Summary of the method: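 Relative activity was defined as the cleaved/total read fraction for a variant divided by the same fraction for the unmutated ribozyme. CPEB3 self-cleaving ribozyme libraries were made by rounds of error-prone PCR, barcoded, and transcribed in vitro with T7 RNA polymerase for 5 hours at 37°C, and cleavage ran through transcription plus a 15 min DNase I step before EDTA. Illumina sequencing of template-switched reverse transcripts gave the reads, and DNA sequencing mapped the barcodes. Averages come from three batches, using variants with at least 5 reads.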

| Variant | self-cleavage |
| --- | --- |
| G46U U72C | 0.22 |
| G46U U72G | 0.25 |
| A45U G52C | 0.29 |
| A47U A77U | 0.71 |
| A47U A77G | 0.37 |
| G46A U69C | 0.07 |
| G46C U54A | 0.15 |
| G46C A47G | 0.26 |
| A45U U67C | 0.27 |
| A45U U67G | 0.17 |
| A45U U67A | 0.24 |
| A47G U54C | 1.01 |
| A47G U54A | 1.08 |
| G46A U49A | 0.33 |
| G46A U49C | 0.11 |
| A47U G70U | 0.14 |
| A47U G70A | 0.13 |
| A47C U67C | 0.12 |
| A47C U67A | 0.23 |
| A47G G63A | 0.88 |
| A47G G63C | 0.93 |
| A47G U69G | 0.68 |
| A47G U69A | 0.6 |
| A47G U69C | 0.57 |

| Variant | self-cleavage |
| --- | --- |
| G46U A64U | 0.18 |
| G46U A64G | 0.16 |
| G46U U76C | 0.38 |
| G46A U60C | 0.14 |
| G46A U60A | 0.5 |
| A45U G55A | 0.14 |
| A45U G55U | 0.24 |
| A47U G55U | 0.26 |
| A47U U74A | 0.64 |
| A47U U74C | 1.14 |
| A47U C68A | 0.25 |
| A47G C71U | 0.87 |
| G46A G53A | 0.45 |
| A45U U66C | 0.27 |
| A45U U66A | 0.31 |
| A45U U66G | 0.13 |
| G46U U58C | 0.17 |
| G46U U80C | 0.3 |
| A47G A57G | 0.51 |
| A47G A57U | 0.29 |
| A47G A57C | 0.36 |
| A47U U51G | 0.47 |
| A47U U51A | 0.4 |
| A47U U51C | 0.43 |

| Variant | self-cleavage |
| --- | --- |
| G46C U76A | 0.22 |
| G46C U76C | 0.5 |
| A47G U67G | 0.34 |
| A47G U67C | 0.35 |
| A47G U67A | 0.49 |
| G46U U74A | 0.46 |
| A47C U72A | 0.26 |
| A45G U78C | 0.76 |
| A45G U78A | 0.91 |
| A45G U78G | 0.81 |
| A47U C79U | 0.52 |
| G46A A75G | 0.25 |
| A47G C59G | 0.35 |
| A47G C59A | 0.29 |
| A47G U51A | 0.98 |
| A47G U51C | 0.94 |
| A47G U51G | 0.79 |
| A45U A75G | 0.35 |
| A45U A75U | 0.55 |
| G46C U78C | 0.21 |
| A45U U54G | 0.21 |
| A45U U54A | 0.51 |
| A45U U54C | 0.53 |
| G46U | 0.28 |

| Variant | self-cleavage |
| --- | --- |
| G46A | 0.33 |
| G46C | 0.32 |
| G46A G73A | 0.99 |
| A45U U60G | 0.68 |
| A45U U60A | 1.09 |
| A45U U60C | 0.46 |
| A45G U80G | 1.02 |
| A45G U80C | 0.91 |
| A45G U80A | 0.91 |
| A45U U58A | 0.12 |
| A45U U58C | 0.29 |
| A47U C59U | 0.2 |
| A47U C59A | 0.17 |
| A45U U69C | 0.31 |
| A45U U69A | 0.31 |
| A45U U69G | 0.51 |
| A45U U76A | 0.52 |
| A45U U76C | 0.49 |
| G46U U67A | 0.23 |
| G46U U67C | 0.03 |
| G46A C68A | 0.15 |
| G46U A47G | 0.15 |
| A45U A57G | 0.31 |
| A45U A57C | 0.35 |

| Variant | self-cleavage |
| --- | --- |
| A45U A57U | 0.33 |
| A45U U51G | 0.46 |
| A45U U51C | 0.48 |
| A45U U51A | 0.33 |
| A47C U74C | 0.7 |
| A47C A77G | 0.34 |
| A45U G61A | 0.46 |
| A47C U51A | 0.33 |
| G46C A56U | 0.13 |
| A45U A65G | 0.25 |
| A45U A65U | 0.18 |
| A47U A64G | 0.37 |
| A47U A64U | 0.26 |
| A47G U72G | 0.35 |
| A47G U72C | 1.12 |
| A47G U72A | 0.64 |
| G46A G63C | 0.62 |
| A47U U60A | 0.21 |
| A47U U60G | 0.29 |
| A47U U60C | 0.23 |
| A47G G52A | 1.25 |
| G46A A65U | 0.43 |
| G46A A65G | 0.14 |
| A47C U76A | 0.48 |

| Variant | self-cleavage |
| --- | --- |
| A47G U76G | 1.16 |
| A47G U76A | 0.98 |
| A47G U76C | 1.04 |
| G46C U51A | 0.25 |
| A47G G61C | 0.35 |
| A47G G61U | 0.49 |
| A47G G61A | 0.61 |
| G46A A47C | 0.17 |
| G46A A47U | 0.24 |
| A47U G63A | 0.29 |
| A45U C81A | 0.87 |
| A45U C81U | 0.46 |
| G46A A64G | 0.19 |
| G46A A64U | 0.08 |
| A47G G70A | 0.77 |
| G46U U48G | 0.14 |
| G46A U80C | 0.37 |
| A45U A64G | 0.33 |
| A45U A64U | 0.27 |
| A47C A64G | 0.26 |
| A47C A64U | 0.45 |
| A47G U80A | 1.13 |
| A47G U80C | 1.08 |
| A47C A57G | 0.5 |

| Variant | self-cleavage |
| --- | --- |
| A45U G73A | 1.23 |
| A45U G73U | 1.2 |
| A47U A65G | 0.35 |
| A47U A65U | 0.16 |
| A45U G53A | 0.68 |
| A45U G53U | 0.58 |
| A45U G53C | 0.33 |
| A47C U78G | 0.46 |
| A47C U78C | 0.54 |
| A47C U78A | 0.51 |
| G46A C50G | 0.21 |
| G46A C50U | 0.17 |
| G46U U54G | 0.16 |
| G46U U54C | 0.14 |
| G46U U51C | 0.28 |
| G46A U48C | 0.26 |
| G46U G73A | 0.81 |
| A45U U80C | 0.62 |
| A47U A75U | 1 |
| A47U A75G | 0.38 |
| A47G U48C | 0.31 |
| A47G U48A | 0.23 |
| A47G U48G | 0.26 |
